Results reported in patent publication US20200216522A1 (DENALI THERAPEUTICS, published 2020).

Key:
Assay in all cases: peptide array
Peptide_044 = biological target: T1, Peptide_044 (human)
T1 peptide: PTPPTREPKKVAVVR
Summary of the method: (§1)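 Overlapping 15-mer peptides (5-aa offset) spanning human 2N4R Tau spotted in triplicate on slides; antibodies bound 2 h at room temperature in 3% BSA-TBST (chimeric IgG 5 μg/mL; mouse IgG 30 μg/mL). Detection 1 h with fluorescent anti-human (568 nm) or anti-mouse (647 nm) secondary; fluorescence imaging aligned to array map.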

Peptide_027 = biological target: T2, Peptide_027 (human)
T2 peptide: SKDGTGSDDKKAKGA
Summary of the method: as §1

Peptide_037 = biological target: T3, Peptide_037 (human)
T3 peptide: TPPSSGEPPKSGDRS
Summary of the method: as §1

Peptide_011 = biological target: T4, Peptide_011 (human)
T4 peptide: PTEDGSEEPGSETSD
Summary of the method: as §1

Peptide_029 = biological target: T5, Peptide_029 (human)
T5 peptide: KAKGADGKTKIATPR
Summary of the method: as §1

Peptide_049 = biological target: T6, Peptide_049 (human)
T6 peptide: SRLQTAPVPMPDLKN
Summary of the method: as §1

Peptide_028 = biological target: T7, Peptide_028 (human)
T7 peptide: GSDDKKAKGADGKTK
Summary of the method: as §1

Peptide_083 = biological target: T8, Peptide_083 (human)
T8 peptide: VSSTGSIDMVDSPQL
Summary of the method: as §1

Peptide_067 = biological target: T9, Peptide_067 (human)
T9 peptide: KPGGGQVEVKSEKLD
Summary of the method: as §1

Peptide_014 = biological target: T10, Peptide_014 (human)
T10 peptide: AKSTPTAEDVTAPLV
Summary of the method: as §1

Peptide_060 = biological target: T11, Peptide_060 (human)
T11 peptide: NIKHVPGGGSVQIVY
Summary of the method: as §1

Peptide_040 = biological target: T12, Peptide_040 (human)
T12 peptide: GYSSPGSPGTPGSRS
Summary of the method: as §1

Peptide_066 = biological target: T13, Peptide_066 (human)
T13 peptide: GNIHHKPGGGQVEVK
Summary of the method: as §1

Peptide_076 = biological target: T14, Peptide_076 (human)
T14 peptide: LTFRENAKAKTDHGA
Summary of the method: as §1

Peptide_085 = biological target: T15, Peptide_085 (human)
T15 peptide: DSPQLATLADEVSAS
Summary of the method: as §1

Peptide_005 = biological target: T16, Peptide_005 (human)
T16 peptide: GDRKDQGGYTMHQDQ
Summary of the method: as §1

Peptide_048 = biological target: T17, Peptide_048 (human)
T17 peptide: PSSAKSRLQTAPVPM
Summary of the method: as §1

Peptide_043 = biological target: T18, Peptide_043 (human)
T18 peptide: RTPSLPTPPTREPKK
Summary of the method: as §1

Peptide_012 = biological target: T19, Peptide_012 (human)
T19 peptide: SEEPGSETSDAKSTP
Summary of the method: as §1

Peptide_018 = biological target: T20, Peptide_018 (human)
T20 peptide: GKQAAAQPHTEIPEG
Summary of the method: as §1

Peptide_045 = biological target: T21, Peptide_045 (human)
T21 peptide: REPKKVAVVRTPPKS
Summary of the method: as §1

Peptide_006 = biological target: T22, Peptide_006 (human)
T22 peptide: QGGYTMHQDQEGDTD
Summary of the method: as §1

Peptide_033 = biological target: T23, Peptide_033 (human)
T23 peptide: GQKGQANATRIPAKT
Summary of the method: as §1

Peptide_068 = biological target: T24, Peptide_068 (human)
T24 peptide: QVEVKSEKLDFKDRV
Summary of the method: as §1

Peptide_047 = biological target: T25, Peptide_047 (human)
T25 peptide: TPPKSPSSAKSRLQT
Summary of the method: as §1

Peptide_081 = biological target: T26, Peptide_081 (human)
T26 peptide: GDTSPRHLSNVSSTG
Summary of the method: as §1

Peptide_035 = biological target: T27, Peptide_035 (human)
T27 peptide: IPAKTPPAPKTPPSS
Summary of the method: as §1

Peptide_073 = biological target: T28, Peptide_073 (human)
T28 peptide: THVPGGGNKKIETHK
Summary of the method: as §1

Peptide_074 = biological target: T29, Peptide_074 (human)
T29 peptide: GGNKKIETHKLTFRE
Summary of the method: as §1

Peptide_039 = biological target: T30, Peptide_039 (human)
T30 peptide: SGDRSGYSSPGSPGT
Summary of the method: as §1

Peptide_065 = biological target: T31, Peptide_065 (human)
T31 peptide: KCGSLGNIHHKPGGG
Summary of the method: as §1

Peptide_070 = biological target: T32, Peptide_070 (human)
T32 peptide: FKDRVQSKIGSLDNI
Summary of the method: as §1

Peptide_021 = biological target: T33, Peptide_021 (human)
T33 peptide: TTAEEAGIGDTPSLE
Summary of the method: as §1

Peptide_004 = biological target: T34, Peptide_004 (human)
T34 peptide: GTYGLGDRKDQGGYT
Summary of the method: as §1

B1: chimeric IgG clone 1D10 (antibody, V domains shown)
VH: EVQLQQSGAELVRPGASVKLSCTASGFNIKDSLMHWMKQRPEQGLEWIGWIDPEDGETKYAPKFQDKATLTADTSSNAAYLQLSSLTSEDTAIYYCVRGDWDGGYWGQGTTLTVSS
VL: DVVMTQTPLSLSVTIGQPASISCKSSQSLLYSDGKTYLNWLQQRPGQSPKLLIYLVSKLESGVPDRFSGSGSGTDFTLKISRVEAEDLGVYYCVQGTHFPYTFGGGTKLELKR
notes: mouse-human chimeric IgG from HEK293
binding result (Peptide_044): no binding (tested: 5 ug/mL) | binding result (Peptide_027): no binding (tested: 5 ug/mL) | binding result (Peptide_037): no binding (tested: 5 ug/mL) | binding result (Peptide_011): no binding (tested: 5 ug/mL) | binding result (Peptide_029): no binding (tested: 5 ug/mL) | binding result (Peptide_049): no binding (tested: 5 ug/mL) | binding result (Peptide_028): no binding (tested: 5 ug/mL) | binding result (Peptide_083): no binding (tested: 5 ug/mL) | binding result (Peptide_067): no binding (tested: 5 ug/mL) | binding result (Peptide_014): no binding (tested: 5 ug/mL) | binding result (Peptide_060): no binding (tested: 5 ug/mL) | binding result (Peptide_040): no binding (tested: 5 ug/mL) | binding result (Peptide_066): no binding (tested: 5 ug/mL) | binding result (Peptide_076): no binding (tested: 5 ug/mL) | binding result (Peptide_085): no binding (tested: 5 ug/mL) | binding result (Peptide_005): no binding (tested: 5 ug/mL) | binding result (Peptide_048): no binding (tested: 5 ug/mL) | binding result (Peptide_043): no binding (tested: 5 ug/mL) | binding result (Peptide_012): no binding (tested: 5 ug/mL) | binding result (Peptide_018): no binding (tested: 5 ug/mL) | binding result (Peptide_045): no binding (tested: 5 ug/mL) | binding result (Peptide_006): no binding (tested: 5 ug/mL) | binding result (Peptide_033): no binding (tested: 5 ug/mL) | binding result (Peptide_068): no binding (tested: 5 ug/mL) | binding result (Peptide_047): no binding (tested: 5 ug/mL) | binding result (Peptide_081): no binding (tested: 5 ug/mL) | binding result (Peptide_035): no binding (tested: 5 ug/mL) | binding result (Peptide_073): no binding (tested: 5 ug/mL) | binding result (Peptide_074): no binding (tested: 5 ug/mL) | binding result (Peptide_039): no binding (tested: 5 ug/mL) | binding result (Peptide_065): no binding (tested: 5 ug/mL) | binding result (Peptide_070): binds | binding result (Peptide_021): no binding (tested: 5 ug/mL) | binding result (Peptide_004): no binding (tested: 5 ug/mL)

B2: murine anti-Tau hybridoma antibody 17G2.A1 (antibody, V domains shown)
VH: QVQLQQPGAELVGPGSSVKLSCKASGYTFINYWIDWMKQSPGQGLEWIGNIYPSDSESHYNQKFTDKATLTVDISSSTAYLQLSSLTSEDSAVYYCALYSKGYWGQGTSVTVSS
VL: DVLMTQTPLSLPVTLGDQASISCRSSQNIVHTNGNTYLEWYLQKPGQSPKLLIYKLSSRFSGVPDRFSGSGSGTDFTLKISRVEAEDLGVYYCFQGSHLPFTFGGGTKLEIKR
notes: mouse IgG from hybridoma; also called anti-Tau 17G2.A1
binding result (Peptide_044): no binding (tested: 30 ug/mL) | binding result (Peptide_027): no binding (tested: 30 ug/mL) | binding result (Peptide_037): no binding (tested: 30 ug/mL) | binding result (Peptide_011): no binding (tested: 30 ug/mL) | binding result (Peptide_029): no binding (tested: 30 ug/mL) | binding result (Peptide_049): no binding (tested: 30 ug/mL) | binding result (Peptide_028): no binding (tested: 30 ug/mL) | binding result (Peptide_083): no binding (tested: 30 ug/mL) | binding result (Peptide_067): no binding (tested: 30 ug/mL) | binding result (Peptide_014): no binding (tested: 30 ug/mL) | binding result (Peptide_060): no binding (tested: 30 ug/mL) | binding result (Peptide_040): no binding (tested: 30 ug/mL) | binding result (Peptide_066): no binding (tested: 30 ug/mL) | binding result (Peptide_076): no binding (tested: 30 ug/mL) | binding result (Peptide_085): no binding (tested: 30 ug/mL) | binding result (Peptide_005): no binding (tested: 30 ug/mL) | binding result (Peptide_048): no binding (tested: 30 ug/mL) | binding result (Peptide_043): no binding (tested: 30 ug/mL) | binding result (Peptide_012): no binding (tested: 30 ug/mL) | binding result (Peptide_018): no binding (tested: 30 ug/mL) | binding result (Peptide_045): no binding (tested: 30 ug/mL) | binding result (Peptide_006): no binding (tested: 30 ug/mL) | binding result (Peptide_033): no binding (tested: 30 ug/mL) | binding result (Peptide_068): no binding (tested: 30 ug/mL) | binding result (Peptide_047): no binding (tested: 30 ug/mL) | binding result (Peptide_081): no binding (tested: 30 ug/mL) | binding result (Peptide_035): no binding (tested: 30 ug/mL) | binding result (Peptide_073): no binding (tested: 30 ug/mL) | binding result (Peptide_074): no binding (tested: 30 ug/mL) | binding result (Peptide_039): binds | binding result (Peptide_065): no binding (tested: 30 ug/mL) | binding result (Peptide_070): no binding (tested: 30 ug/mL) | binding result (Peptide_021): no binding (tested: 30 ug/mL) | binding result (Peptide_004): no binding (tested: 30 ug/mL)
